{"source": "paper PMC3919030", "about": "(Journal of molecular biology, 2013)", "binders": {"B1": {"name": "Sulfolobus solfataricus Vps4 (SsoVps4, wild type) (enzyme, UniProt Q97ZJ7 1-372, looked up)", "chain": "MSAQVMLEDMARKYAILAVKADKEGKVEDAITYYKKAIEVLSQIIVLYPESVARTAYEQMINEYKKRISYLEKVLPASSDGSGDNTSPPEEVVITEKPKVSFKDIVGLDDVKEALREAIIYPTKRPDLFPLGWPRGILLYGPPGCGKTMIAAAVANEIDSIFMQLDAASVMSKWLGEAEKNVANVFKMAREESKKQNKPAIIFIDELDALLGVYSTEVGGEARVRNQFLKEMDGLLDKSENYKVYVIGATNKPWRLDEAFLRRFQKRIYVPLPDYEQRLSLFKYYTSKIKLDTEVSLEELAKLTEGYTASDIRDIVQAAHIKVVKEMFKNNLGEPRTITLQDFKDILKVRMPSVNPELIKAYEAWTEKFKAL"}, "B2": {"name": "SsoVps4(E206Q) (enzyme, Sulfolobus solfataricus, UniProt Q97ZJ7 1-372, looked up)", "chain": "B1 chain with E206Q"}, "B3": {"name": "SsoVps4(F328A) (enzyme, Sulfolobus solfataricus, UniProt Q97ZJ7 1-372, looked up)", "chain": "B1 chain with F328A"}, "B4": {"name": "SsoVps4(R262A) (enzyme, Sulfolobus solfataricus, UniProt Q97ZJ7 1-372, looked up)", "chain": "B1 chain with R262A"}, "B5": {"name": "SsoVps4(R263A) (enzyme, Sulfolobus solfataricus, UniProt Q97ZJ7 1-372, looked up)", "chain": "B1 chain with R263A"}, "B6": {"name": "SsoVps4(85-372, E206Q) (domain or fragment, Sulfolobus solfataricus, UniProt Q97ZJ7 85-372, looked up)", "chain": "NTSPPEEVVITEKPKVSFKDIVGLDDVKEALREAIIYPTKRPDLFPLGWPRGILLYGPPGCGKTMIAAAVANEIDSIFMQLDAASVMSKWLGEAEKNVANVFKMAREESKKQNKPAIIFIDQLDALLGVYSTEVGGEARVRNQFLKEMDGLLDKSENYKVYVIGATNKPWRLDEAFLRRFQKRIYVPLPDYEQRLSLFKYYTSKIKLDTEVSLEELAKLTEGYTASDIRDIVQAAHIKVVKEMFKNNLGEPRTITLQDFKDILKVRMPSVNPELIKAYEAWTEKFKAL", "modifications": "selenomethionine-substituted"}, "B7": {"name": "S. cerevisiae Vps4p(E233Q) (enzyme, UniProt P52917 1-437, looked up)", "chain": "MSTGDFLTKGIELVQKAIDLDTATQYEEAYTAYYNGLDYLMLALKYEKNPKSKDLIRAKFTEYLNRAEQLKKHLESEEANAAKKSPSAGSGSNGGNKKISQEEGEDNGGEDNKKLRGALSSAILSEKPNVKWEDVAGLEGAKEALKEAVILPVKFPHLFKGNRKPTSGILLYGPPGTGKSYLAKAVATEANSTFFSVSSSDLVSKWMGESEKLVKQLFAMARENKPSIIFIDQVDALTGTRGEGESEASRRIKTELLVQMNGVGNDSQGVLVLGATNIPWQLDSAIRRRFERRIYIPLPDLAARTTMFEINVGDTPCVLTKEDYRTLGAMTEGYSGSDIAVVVKDALMQPIRKIQSATHFKDVSTEDDETRKLTPCSPGDDGAIEMSWTDIEADELKEPDLTIKDFLKAIKSTRPTVNEDDLLKQEQFTRDFGQEGN"}, "B8": {"name": "S. cerevisiae Vta1p (natural protein, UniProt Q06263 1-330, looked up)", "chain": "MASNAARVVATAKDFDKVGLGIIGYYLQLYAVELILSEEDRSQEMTALATELLDTIEAFKKEIGGESEAEDSDKSLHVMNTLIHDQEKAKIYMLNFTMSLYNEKLKQLKDGPWDVMLKRSLWCCIDLFSCILHLWKENISETSTNSLQKRIKYCKIYLSKLAKGEIGSSDEKTLDYADFADDSEEIKDEDVDHQTSDLENNNNDKVEGLAPKDQTTSYEPVDEVPEFIDDADSVNEEEQTVDKNEDAITKDEQQVVKKEVDLTRPSAPSEPAAAEHKSYTKDELTKIMDRASKIEQIQKLAKYAISALNYEDLPTAKDELTKALDLLNSI"}}, "key": {"[1]": {"biological_target": "the molecule itself", "assay": "AUC"}, "[2]": {"biological_target": "the molecule itself", "assay": "SEC"}, "[3]": {"biological_target": "the molecule itself", "assay": "SEC", "remark": "listed apart in the source"}, "[4]": {"biological_target": "the molecule itself", "assay": "SEC", "remark": "listed apart in the source"}, "[5]": {"biological_target": "the molecule itself", "assay": "crystal structure"}, "[6]": {"biological_target": "the molecule itself", "assay": "SEC", "remark": "listed apart in the source"}, "[7]": {"biological_target": "the molecule itself", "assay": "SEC", "remark": "listed apart in the source"}, "[8]": {"biological_target": "T1, S. cerevisiae Vps4p (wild type) (S. cerevisiae, UniProt P52917 1-437)", "T1 sequence (looked up)": "B7 chain with Q233E", "assay": "SEC"}, "[9]": {"biological_target": "B7", "assay": "SEC"}}, "note": "Numbering of substitutions follows the chain as printed. Numbers in names are those of the source.", "data": [{"binder": "B1", "values": [{"measurement": "stoichiometry N", "setting": "[1]", "result": 6}, {"measurement": "stoichiometry N", "setting": "[2]", "result": 12}, {"measurement": "stoichiometry N", "setting": "[3]", "result": "~6"}]}, {"binder": "B2", "values": [{"measurement": "stoichiometry N", "setting": "[2]", "result": 12}, {"measurement": "stoichiometry N", "setting": "[3]", "result": "~6"}]}, {"binder": "B3", "values": [{"measurement": "stoichiometry N", "setting": "[3]", "result": 2}]}, {"binder": "B4", "values": [{"measurement": "binding result", "setting": "[4]", "result": "binds"}]}, {"binder": "B5", "values": [{"measurement": "binding result", "setting": "[4]", "result": "binds"}]}, {"binder": "B6", "values": [{"measurement": "binding result", "setting": "[5]", "result": "binds"}]}, {"binder": "B7", "values": [{"measurement": "stoichiometry N", "setting": "[6]", "result": 6}, {"measurement": "stoichiometry N", "setting": "[7]", "result": 12}]}, {"binder": "B8", "values": [{"measurement": "binding result", "setting": "[8]", "result": "binds"}, {"measurement": "binding result", "setting": "[9]", "result": "binds"}]}]}
